pEC50, pIC50, pKd: −log10 of the molar value. Blank lines part the entries; values can stand above or below the compound they belong to.
Experiments:
[1] = target: gastrin releasing peptide receptor (GRP-R) (human) (UniProt P30550); assay: competition with 67Ga-AMBA on PC-3 cells, 4 C
[2] = target: gastrin releasing peptide receptor (GRP-R) (human) (UniProt P30550); assay: competition with 177Lu-AMBA on PC-3 cells, 4 C
[3] = target: gastrin releasing peptide receptor (GRP-R) (human) (UniProt P30550); assay: saturation binding of carrier-added radioligand on PC-3 cells, 4 C
[4] = target: gastrin releasing peptide receptor (GRP-R) (human) (UniProt P30550); assay: competition with 125I-universal ligand, receptor autoradiography on human cancer tissue
[5] = target: human neuromedin-B preferring receptor (NMB-R) (human) (UniProt P28336); assay: as above
[6] = test system: human PC-3 nude mouse model; assay type: in vivo
Procedure: For biodistribution studies, the radiolabeled compounds were prepared as described above except that a 1:1 molar ratio of ligand to Lutetium was used to guarantee complete chelation of all starting ligand. The HPLC peak containing the resulting ^177Lu complex was collected in 1 mL of 9:1 Bacteriostatic saline/ASCOR L500® solution containing 0.1% HSA, and the organic solvents were removed using a speed-vacuum device. The remaining solution was further diluted to the required radioconcentration using Bacteriostatic saline/ASCOR L500® Ascorbic Acid Injection USP mixed in a 9 to 1 [v/v]) ratio. The radiochemical purity of all samples was […].
10-50 μCi of the HPLC purified compounds were administered to each mouse by i.v. tail vein injection, n=4 per group. […] Radioactivity was assayed in a gamma counter. The data was expressed as percentage of the total administered radioactivity (% ID) for the urine combined with the bladder, as well as for the blood pool; and percentage of the total administered radioactivity per gram (% ID/g) for all the other tested organs.

[7] = test system: BT-474 human breast cancer cells; assay: Effect of drug treatment on GRP receptor binding (177Lu-AMBA) in BT-474 cells; assay type: cell-based; details: BT-474; relative to untreated control; drug 0.1-1.0 μM (4-OH Tamoxifen 0.001-0.1 μM)
Procedure: BT-474 breast cancer cells (human primary invasive ductal carcinoma; ER+, PR+, amplified HER2/neu+) were obtained from the American Type Culture Collection. The growth medium for BT-474 cells is Hybri-care Medium (Cat No: 46X, ATCC) supplemented with 10% heat inactivated FBS (Hyclone, SH30070.03), 0.2% NaHCO3, and antibiotic/antimycotic “PSF-1×” (GibcoBRL, 15240-062) for a final concentration of penicillin-streptomycin (1×, 100 units/mL), and fungizone (0.25 μg/mL). […] Cells for binding experiments were plated on Day 0 at 5.6×10^4 cells/cm^2 in 96-well white/clear bottom microtiter plates (Falcon Optilux-I), or 96 well black/clear collagen I cellware plates (Beckton Dickinson Biocoat).
(§1) RPMI 1640 supplemented with 20 mM HEPES, 0.1% BSA (w/v), 0.5 mM PMSF (AEBSF), bacitracin (50 mg/500 ml), pH 7.4.
(§2) Incubations were stopped by the addition of 200 μL of ice-cold binding buffer. Plates were washed three more times with binding buffer, 140 μL of scintillation fluid was added to each well, the plates were sealed and analyzed on a Microβ plate reader (Microbeta Trilux, Perkin-Elmer).
Treatment: BT-474 cells were plated on Day 0 and treated on Days 1 and 2 (DT1, DT2).

[8] = test system: T47D human breast cancer cells; assay: Effect of drug treatment on GRP receptor binding (177Lu-AMBA) in T47D cells; assay type: cell-based; details: T-47D; relative to untreated control; drug 0.1-1.0 μM (4-OH Tamoxifen 0.001-0.1 μM)
From the text: T-47D breast cancer cells (human metastatic mammary gland ductal adenocarcinoma isolated from pleural effusion, ER+, PR+) were obtained from the American Type Culture Collection.

[9] = test system: PC-3 prostate cancer cells; assay: Effect of drug treatment on GRP receptor binding (177Lu-AMBA) in PC-3 cells; assay type: cell-based, human; details: PC-3; drug 0.1-1.0 μM (4-OH Tamoxifen 0.001-0.1 μM)
Procedure: as §1, §2
PC-3 (human prostate adenocarcinoma, bone metastasis, AR-, ER) were obtained from the American Type Culture Collection. The growth medium for PC-3 cells is RPMI 1640 (10-041-CM, Mediatech, Inc), supplemented with 10% heat inactivated FBS (Hyclone, SH30070.03) and PSF-1× (as in Example LXVI). The binding buffer, lapatinib solutions, treatment method and cell binding assay is the same as in Example LXVI.

[10] = test system: ZR-75-1 human breast cancer cells; assay: Effect of 4-hydroxytamoxifen on GRP receptor binding and glucose uptake in ZR-75-1 cells; assay type: cell-based
Procedure: Method: ZR-75-1 breast cancer cell line (human ductal carcinoma with estrogen receptor) was obtained from the American Type Culture Collection (ATCC).
ZR-75-1 cells were plated on Day 0 (40 k/well 96-well PE Scintiplate). […] To determine the cell numbers and the proliferation, 100 uL of 10% CCK—F solution in DPBS (Molecular technologies) was added to the same plate, incubated for 30 min at 37° C. and the relative fluorescence (RFU) measured at 535 nm. Based on the cell numbers and the ^177Lu-binding, the Bmax (fmoles bound/million cells) was calculated.
The cell numbers were determined with CCK—F treatment as described above.

[11] = test system: ZR-75-1 human breast cancer cells; assay: Longterm (2-12 days) effect of 4-hydroxytamoxifen on GRP receptor binding in ZR-75-1 cells; assay type: cell-based
Procedure: The ZR-75-1 cells were seeded at 15K per well onto two 96-well scintiplates on the same day as 2 days study.

[12] = breast cancer patients; cited from earlier work
[13] = target: gastrin releasing peptide receptor (GRP-R) (human) (UniProt P30550); assay: saturation binding on PC-3 cells
[14] = target: gastrin releasing peptide receptor (GRP-R) (human) (UniProt P30550); assay: receptor autoradiography with 177Lu-L70
[15] = target: human bombesin receptor subtype 3 (BB3-R) (human) (UniProt P32247); assay: receptor autoradiography with 177Lu-L70
[16] = target: human neuromedin-B preferring receptor (NMB-R) (human) (UniProt P28336); assay: receptor autoradiography with 177Lu-L70
[17] = target: mouse GRP-R (mouse) (UniProt P21729); assay: receptor autoradiography with 177Lu-L70
[18] = ZR-75-1, long-term treatment, 100 nM

gastrin releasing peptide receptor (GRP-R) (human), sequence (P30550 whole entry): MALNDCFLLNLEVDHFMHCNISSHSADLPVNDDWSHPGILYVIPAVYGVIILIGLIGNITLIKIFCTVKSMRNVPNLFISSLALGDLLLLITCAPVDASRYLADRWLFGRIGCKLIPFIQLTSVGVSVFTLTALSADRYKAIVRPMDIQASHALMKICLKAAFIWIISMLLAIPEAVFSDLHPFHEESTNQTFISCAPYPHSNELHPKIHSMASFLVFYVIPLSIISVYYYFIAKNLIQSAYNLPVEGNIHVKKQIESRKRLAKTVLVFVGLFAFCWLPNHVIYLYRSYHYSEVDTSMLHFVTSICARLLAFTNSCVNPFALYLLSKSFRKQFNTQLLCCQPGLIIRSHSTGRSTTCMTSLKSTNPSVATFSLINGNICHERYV
human neuromedin-B preferring receptor (NMB-R) (human), sequence (P28336 whole entry): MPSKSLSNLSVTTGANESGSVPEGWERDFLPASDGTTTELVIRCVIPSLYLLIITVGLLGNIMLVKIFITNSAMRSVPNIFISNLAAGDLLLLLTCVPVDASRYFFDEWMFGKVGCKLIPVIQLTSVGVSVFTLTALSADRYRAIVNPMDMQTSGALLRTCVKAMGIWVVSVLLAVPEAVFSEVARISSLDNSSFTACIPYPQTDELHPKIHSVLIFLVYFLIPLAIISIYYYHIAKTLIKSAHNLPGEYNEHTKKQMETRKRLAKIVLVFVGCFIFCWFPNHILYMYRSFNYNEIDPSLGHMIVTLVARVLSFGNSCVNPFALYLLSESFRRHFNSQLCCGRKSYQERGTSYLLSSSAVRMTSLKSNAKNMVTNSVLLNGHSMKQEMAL
human bombesin receptor subtype 3 (BB3-R) (human), sequence (P32247 whole entry): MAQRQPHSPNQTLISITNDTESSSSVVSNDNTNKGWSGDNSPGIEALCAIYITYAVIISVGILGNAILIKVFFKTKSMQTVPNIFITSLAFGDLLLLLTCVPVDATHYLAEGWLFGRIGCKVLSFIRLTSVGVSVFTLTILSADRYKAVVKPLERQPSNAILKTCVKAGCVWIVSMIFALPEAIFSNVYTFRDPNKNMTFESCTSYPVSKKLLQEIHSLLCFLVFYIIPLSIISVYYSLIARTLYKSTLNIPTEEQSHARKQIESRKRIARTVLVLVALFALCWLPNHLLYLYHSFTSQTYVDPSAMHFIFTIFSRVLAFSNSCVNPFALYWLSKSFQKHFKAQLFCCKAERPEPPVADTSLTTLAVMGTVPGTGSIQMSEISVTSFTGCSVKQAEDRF
mouse GRP-R (mouse), sequence (P21729 whole entry): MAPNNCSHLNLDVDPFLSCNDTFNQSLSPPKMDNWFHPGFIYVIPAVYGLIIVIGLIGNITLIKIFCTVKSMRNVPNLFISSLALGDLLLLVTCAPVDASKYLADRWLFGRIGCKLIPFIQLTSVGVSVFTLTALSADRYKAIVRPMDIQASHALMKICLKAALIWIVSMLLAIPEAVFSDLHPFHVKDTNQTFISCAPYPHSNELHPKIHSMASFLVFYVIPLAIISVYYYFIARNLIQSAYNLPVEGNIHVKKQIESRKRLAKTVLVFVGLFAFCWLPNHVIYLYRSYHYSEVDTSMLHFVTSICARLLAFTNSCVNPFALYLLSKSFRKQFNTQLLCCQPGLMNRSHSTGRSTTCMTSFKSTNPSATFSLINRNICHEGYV

pEC50 [1]: 9.00
pEC50 [2]: 8.94
Compound: Ga-AMBA (non-radioactive) (peptide)

Binding capacity (Bmax) (fmoles/1 × 10^6 cells) [3]: 402
pKd [3]: 9.34
Receptors/cell (receptors/cell) [3]: 242000
Compound: 67Ga-AMBA (peptide)

pEC50 [1]: 8.89
pEC50 [2]: 8.83
pIC50 [4]: 9.10
pIC50 [5]: 9.05
Compound: 175Lu-L70 (peptide)

Compound: CC1(N(CC(=O)O)CC(=O)O)CN(CC(=O)O)[C@@H]2CCCC[C@H]2N(CC(=O)O)C1 [XX100]
Blood % ID (7 d column, *72 h timepoint) ([6]; 177Lu complex, i.v., PC-3 nude mouse, 72 h): 0.00 ± 0.00 % ID
clearance and localization of radioactivity ([6]; Lu-177 complexes, human PC-3 nude mouse model, 1 h, 1 and 7 days): rapidly cleared from the body with little residual localization in any organs or tissue

Compound: CC/C(=C(\c1ccc(O)cc1)c1ccc(OCCN(C)C)cc1)c1ccccc1 [4-OH Tamoxifen, 4-hydroxytamoxifen]
decrease in 177Lu-AMBA binding (GRP receptor specific signal per cell) [7]: up to 73%
decrease in 177Lu-AMBA binding (GRP receptor specific signal per cell) [8]: up to 35%
change in GRP receptor specific signal per cell (177Lu-AMBA binding) [9]: no change
decrease in glycolysis (2-NBDG uptake) ([10]; ZR-75-1): ~20%
change in cell proliferation ([10]; ZR-75-1, 0-0.1 μM): little change
inhibition of proliferation ([11]; ZR-75-1, 100 nM, by 12 day): 28%
2-NBDG uptake [11, 18]: smaller changes
177Lu-AMBA uptake [11, 18]: significant reduction

pIC50 [4]: 9.15
pIC50 [5]: 9.10
Compound: [DTyr6, βAla11, Phe13, Nle14]-BBN(6-14) (peptide)

Compound: Herceptin®
overall response [12]: 9%

Binding capacity (Bmax) (fmoles/1 × 10^6 cells) [13]: 408
pKd [13]: 9.36
Receptors/cell (receptors/cell) [13]: 245000
tissues labelled / tissues tested (of 4 (Prostate Ca)) [14]: 4
tissues labelled / tissues tested (of 5 (Chronic pancreatitis, acini)) [14]: 5
tissues labelled / tissues tested (of 6 (Renal Ca)) [14]: 5
tissues labelled / tissues tested (of 7 (Colon Ca, smooth muscle)) [14]: 7
tissues labelled / tissues tested (of 7 (Colon Ca, tumor)) [14]: 3
tissues labelled / tissues tested (of 7 (Human pancreas, acini)) [14]: 1
tissues labelled / tissues tested (of 8 (Mammary Ca)) [14]: 8
tissues labelled / tissues tested (of 4 (Mouse pancreas, acini)) [17]: 4
Compound: 177Lu-L70 (peptide)
tissues labelled / tissues tested (of 6 (Bronchial carcinoid)) [14]: 2
tissues labelled / tissues tested (of 6 (Bronchial carcinoid)) [15]: 0
tissues labelled / tissues tested (of 8 (Ileal carcinoid)) [16]: 8

From patent publication US20110250133A1, “GASTRIN […] PEPTIDE COMPOUNDS” (priority 2003, published 2011)
